This is an account of results in doi:10.1101/380220 (bioRxiv, 2019).

Where two headings read alike, the source gives them in different places.

In assay [1] the target is T1, GTP-loaded Ras1.G17V (1-172) (fission yeast (Schizosaccharomyces …, UniProt P08647 1-172, G17V)).
T1 sequence (looked up): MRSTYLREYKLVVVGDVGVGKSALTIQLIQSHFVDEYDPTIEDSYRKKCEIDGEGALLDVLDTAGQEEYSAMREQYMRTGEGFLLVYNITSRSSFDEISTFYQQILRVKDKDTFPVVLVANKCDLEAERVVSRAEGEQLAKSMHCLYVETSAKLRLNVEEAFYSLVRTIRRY
Put plainly: pull-down.

The target of assay [2] is T1, GTP-loaded Ras1.G17V (1-172). Put plainly: pull-down. The source holds these as a separate data set.

B1: GST-Scd1 (760-872) (domain or fragment, UniProt P40995 760-872, looked up)
chain: SSSTSTSLSVRNTTNVKIRLRLHEVSLVLVVAHDITFDELLAKVEHKIKLCGILKQAVPFRVRLKYVDEDGDFITITSDEDVLMAFETCTFELMDPVHNKGMDTVSLHVVVYF
On to B1, for which the binding result in assay [1] is “binds”.

B2: Scd1 (760-872) fragment (domain or fragment, UniProt P40995 760-872, looked up)
chain: B1 chain
As for B2, the binding result in assay [2] is “binds”.

B3: GST-Byr2 (65-180) (domain or fragment, UniProt P28829 65-180, looked up)
chain: REFPRPCILRFIACNGQTRAVQSRGDYQKTLAIALKKFSLEDASKFIVCVSQSSRIKLITEEEFKQICFNSSSPERDRLIIVPKEKPCPSFEDLRRSWEIELAQPAALSSQSSLSP
Turning to B3, in assay [1], the binding result was “binds”.
